Experimental data taken from the DeepSol protein solubility set.

Assay: soluble on expression in E. coli; label from the status in PepcDB or PDB records

Sequence	soluble on expression in E. coli
MANQKKDSLSTLFSEEVHGPFVTFLFNTHVAHQNVEKDSLVLKNFAKAAKTRFEKKFPEEKWSVFQEKIDALLADASFWRNGTASVSIILSPENTFVQRLDVPVDDQYYVDTIPYLLGLVKDKQFNYHYYLLALNRDSMKLYKVDHTTVTPVELPKDAPTDVVTALGDELTGGNLNFSTQGSSNGSKEGVAYHSINTKDKEVEIDWVNYYQAVDTFLKDQLDNPEKLPLYLYALPENQTLFKKIAKNPYYDCSISVAASPAQATIQDIRSASEKIAAELTEKETASYNKLLDRKFLDQFTDISPAAADGKISHLFIATSLFVTENNEMSSEEYDRRKLLNTIAYQVIQNGGQVFVLDQKAAPDEKSLAAILRY	not soluble
MGSDKIHHHHHHMFNLEEYTEKAQKVMMSIQDIMTRYRQNQLSSEHILLAILEEGNNVGVELLKELNVDINRLKDEVEVFIGKYGVRVPEGASVSQIFITPDARHVIEKAREEARRMGDSKIGTEHLILGMVLSPDSTAFRILSRYGVTPERVYEAIRKIRSTGKTDEAENVEALARFTVDLTQLAREKKLMPVVDREKEIRRVIQILSRRTKNNPVLIGDPGVGKTAVVEGLAQRIVEGKVPLFLRNVRVLKLDMGRLVAGTRFRGDFEERLKRLLDELKRKKGEVILFIDEVHTVVGAGAAEGALDAANIMKPELTTGEIQIIGATTVEEYRKYIEKDRALERRFQPVMVEEPTVEQTIEILKGLRKVFEEHHHVKITDDALEAAAKLSARYITNRFLPDKAVDLIDEAAAYVRLESSYPSEELLKLEEEIKNLEDKINDAVVKGEYEEAAKLKVELQKLKNEYEEKRKKQEKVEPVVDENVVAKIVEQWTGIPVSRIMESEREKLLKLEEFIHQRLVNQEEAVKIVARTIRRARVGIKNPRRPIGVFLFLGPTGVGKTELARTLADVLFGSEDAMIRLDMSEYMEKHSVARLIGAPPGYVGYEEGGQLTEAVRKRPYSVILLDEIEKAHPDVFNILLQVFEDGRLTDGKGNTVDFRNTIIIMTSNIGSEKILEMSENGVRIEIEKELRNTFKPEFLNRIDAIVYFKPLTMEEVKKIVEIMVRQLQEILKEKNISIELTERAKEYLAEAGYVPSLGARPLRRIIELELESMIADKILEGEIKEGDRVLVDADEYGLKIERR	not soluble
AHHHHHHGSEFNIIIAGVGGQGGLTLSRIIGSAAMVEGYRVRIGETLGMSQRYGSVLSYLRFGDSVYSPLIEEGKANLMLALEPVEALRNAAFLGKGSYAIVNAYPIHTATTLVGKEKYPSLEEIKEALEKICRVEMMNFQKEADLINPRTTGVLMLGYAQGKGLLPLKKESIIEGIRLTLREKLWEINFKAFERGRELAKHVCCDV	soluble
MGHHHHHHSHMFVYLNPNPKNTLRIDAEALTETRRLAARAWDLKYQMTKQGMHQRMLRAELDNLEILERGHSAALTTNLSLLANVLLDQPAPPDPTQGEEKGLPPSSRVESRTEGVYTVTVYPGDPAFEIQDSLPQKIWPMLYLHQQRWLPSYGPWHIRFTSSAMQLRNFPRSLRGQANFQNSMSLKLITALTDVISRISLDFYSDLRHLSDTMSALCLIAAYYSEKNQTPLPTNLPELLGNITAKVTLLVRDLKRAAANKGFNFNRNSSSLLPAQGGLYSNDFFQEHALYSLFRTAGMLASSSSPEYPRADSVLAITAAVFGDNIPPFAAYQWNLRSGLKALESLILLFLLLDVNVPATSNKRLHLEALLGESYSKGSRPPARRTGPLDAGGSVFSFLMENYLVPTLLHRPTTNMSALFPGLYLLQLEFSSGASTPHAIHLTDVKFRDIFNILVQSNVFQDSQELIRAKQSLRVSCETGSGNLLESLSPGTTMRDIIRKEFMAQDVYDYVYFCVLGALPVTVAVV	not soluble
MLSGPHPSPTFRPNPCPWPCLHSLWMEISPTQLCFLSPGPSPQSPSCCFQGMNSGSELGKLWRKLFKGIPRLSVSHFDFYCGTCVLLGRPQIPQGSSLGNDIDQYPVVFRNASDQGSWMQLEMLLRKLSDLVWTSDALSDKILEDGLVP	soluble
MNMYRVIEMYGDFEPWWFLEGWEEDIVASRKFDQYYDALKYYKTCWFRLEQESPLYKSRSDLMTIFWDPEDQRWCDECDEYLQQYHSLALLQDEQVIPDEKLRSGYEKQTSQERNRSCRMKLKLEHHHHHH	soluble
MSLILYDYFRSTACYRVRIALNLKKIAYEKIEVHLVNNGGEQHSLQYHQINPQELVPSLDINGQILSQSMAIIDYLEEIHPEMPLLPKDPFMKATLKSMALIVACDMHPLNNLRVLNRLKEQFNANEEQVLEWYHHWLKTGFDAFEEKLGALERDKPVCFGSEVGLADVCLIPQVYNAHRFHFDMASYPIINEINEYCLTLPAFHDAAPEAISSEGHHHHHH	soluble
MGSDKIHHHHHHMGIKYSFTRELRTELIDVDKVFKENLLPWWDDIYNYIKMLNEDFTWNQLPPLVYIVYRYLGLDRSISISMTNIFKTLYLANSIHGMVKDDKEGQKYDQDLQFAILIGDYMFGRMLKLLVEAGADKLVGLFAVMMAEINEGQVMERKLQAAHKDVLQKTRGSIYATAFETAGHLSGMKGILLENCRQLGLNLGMSIELMNCDISREEVLVYIHEAERNYKIINQYQRMVNSNLEAAINEVHSLLCNIENVAVV	not soluble
MSLDIQSLDIQCEELSDARWAELLPLLQQCQVVRLDDCGLTEARCKDISSALRVNPALAELNLRSNELGDVGVHCVLQGLQTPSCKIQKLSLQNCCLTGAGCGVLSSTLRTLPTLQELHLSDNLLGDAGLQLLCEGLLDPQCRLEKLQLEYCSLSAASCEPLASVLRAKPDFKELTVSNNDINEAGVRVLCQGLKDSPCQLEALKLESCGVTSDNCRDLCGIVASKASLRELALGSNKLGDVGMAELCPGLLHPSSRLRTLWIWECGITAKGCGDLCRVLRAKESLKELSLAGNELGDEGARLLCETLLEPGCQLESLWVKSCSFTAACCSHFSSVLAQNRFLLELQISNNRLEDAGVRELCQGLGQPGSVLRVLWLADCDVSDSSCSSLAATLLANHSLRELDLSNNCLGDAGILQLVESVRQPGCLLEQLVLYDIYWSEEMEDRLQALEKDKPSLRVIS	soluble
GSHMDKIKLLKAAFLQYCRKDLGHAQMVVDELFSSHSDLDSDSELDRAVTQISVDLMDDYPASDPRWAESVPEEAPGFSNTSLIILHQLEDKMKAHSFLMDFIHQVGLFGRLGSFPVRGTPMATRLLLCEHAEKLSAAIVLKNHHSRLSDLVNTAILIALNKREYEIPSNLTPADVFFREVSQVDTICECLLEHEEQVLRDAPMDSIEWAEVVINVNNILKDMLQAASHYRQNRNSLYRREESLEKEPEYVPWTATSGPGGIRTVIIRQHEIVLKVAYPQADSNLRNIVTEQLVALIDCFLDGYVSQLKSVDKSSNRERYDNLEMEYLQKRSDLLSPLLSLGQYLWAASLAEKYCDFDILVQMCEQTDNQSRLQRYMTQFADQNFSDFLFRWYLEKGKRGKLLSQPISQHGQLANFLQAHEHLSWLHEINSQELEKAHATLLGLANMETRYFAKKKTLLGLSKLAALASDFSEDMLQEKIEEMAEQERFLLHQETLPEQLLAEKQLNLSAMPVLTAPQLIGLYICEENRRANEYDFKKALDLLEYIDEEEDININDLKLEILCKALQRDNWSSSDGKDDPIEVSKDSIFVKILQKLLKDGIQLSEYLPEVKDLLQADQLGSLKSNPYFEFVLKANYEYYVQGQI	soluble
MRVNVPVQVPPPASPPQPSQPAGQAQGGVTAPVIKVLPGNPLPPAGSAFVDDFSSYPTGAVLPMVAPDRYGVYKAPNGTLSPAVAETFTPQGGLDKALRLEAANTAMLTTGAPDWTDYRVSFRFKYETGGTLDVGLFVHGSGDRMLIVRLGWGYTGGVHLIKVAGDQRFTLVSRRELKPLTEALKDQNWHDFAAEARSDGTVRVMVDQQTVIEWKDPDYRAGGIGIGINRLGDRIIWHIDDLKVERL	soluble
MGSDKIHHHHHHMYVVFGATGQTGSAVANALLERNFPVRVVLRSDKAASTWREKGADVAIAEVTDVEAMTAAMREADAVYVMNPPAYNVSDMFALAEQIGECYVEALTNADARKVVLLSSVGSQHASGTGNILTTHILERMLGNLAVPVTVLRAASFMENWGSAAAIAAEQGVLPSFFAPLDRRLPMVSTEDIGRTAAEAMIEDWKGQRIIELHGPIDYSPNDVAAAFAAVLNRNVQAIAVPESDWQATISSFGFSPEAVNSYSEMMRGFNSGHIVFESSPEIETRTGQTAIEAAVDRLTGSKSK	not soluble
MQALTTYKCIEKGIVVWLTGLPGSGKTTIATRLADLLQKEGYRVEVLDGDWARTTVSEGAGFTREERLRHLKRIAWIARLLARNGVIVICSFVSPYKQARNMVRRIVEEEGIPFLEIYVKASLEEVIRRDPKGLYKKALKGELENFTGITDPYEPPENPQLVLDTESNTIEHNVSYLYSLVKAVIE	soluble
MSLIFILGIFYYLTQPLKSNSVVFIPQGSISQIITYLKQNKYQMSNIDKYILFFLGHPQSGWINIGTKDLNRAEFLHKLTIAKAALQTITLIPGETSVIFLEQAAKQLGLDKDILLKEFQAQAPYDEGVFLPETYKIPKGITENLLIQMLLNHAEISNKKTSEKIFGDYNPKKWHQYIIIASVIQKEAANDNEMPIVASVIYNRLKKGMKLQMDGTLNYGIYSHVKVTPQRIRQDNSFYNTYKFTGLPKEAVCNVSLAAIRAAIFPLKTDYLYFVRDKNTGVHIFSTNIDDHNKAINLQKGKEGHHHHHH	not soluble
MRIIMPVEFSRIVRDVERLIAVEKYSLQGVVDGDKLLVVGFSEGSVNAYLYDGGETVKLNREPINSVLDPHYGVGRVILVRDVSKGAEQHALFKVNTSRPGEEQRLEAVKPMRILSGVDTGEAVVFTGATEDRVALYALDGGGLRELARLPGFGFVSDIRGDLIAGLGFFGGGRVSLFTSNLSSGGLRVFDSGEGSFSSASISPGMKVTAGLETAREARLVTVDPRDGSVEDLELPSKDFSSYRPTAITWLGYLPDGRLAVVARREGRSAVFIDGERVEAPQGNHGRVVLWRGKLVTSHTSLSTPPRIVSLPSGEPLLEGGLPEDLRRSIAGSRLVWVESFDGSRVPTYVLESGRAPTPGPTVVLVAGGPFAEDSDSWDTFAASLAAAGFHVVMPNYRGSTGYGEEWRLKIIGDPCGGELEDVSAAARWARESGLASELYIMGYSYGGYMTLCALTMKPGLFKAGVAGASVVDWEEMYELSDAAFRNFIEQLTGGSREIMRSRSPINHVDRIKEPLALIHPQNDSRTPLKPLLRLMGELLARGKTFEAHIIPDAGHAINTMEDAVKILLPAVFFLATQRERR	soluble
MAYDGLFTKKMVESLQFLTTGRVHKINQPDNDTILMVVRQNRQNHQLLLSIHPNFSRLQLTTKKYDNPFNPPMFARVFRKHLEGGIIESIKQIGNDRRIEIDIKSKDEIGDTIYRTVILEIMGKHSNLILVDENRKIIEGFKHLTPNTNHYRTVMPGFNYEAPPTQHKINPYDITGAEVLKYIDFNAGNIAKQLLNQFEGFSPLITNEIVSRRQFMTSSTLPEAFDEVMAETKLPPTPIFHKNHETGKEDFYFIKLNQFNDDTVTYDSLNDLLDRFYDARGERERVKQRANDLVRFVQQQLHKYQNKLAKLIEEYEQSKNKDTEQLYGELITANIYRIKQGDKEVTALNYYTNEEVVIPLNPTKSPSANAQYYYKQYNRMKTRERELQHQIQLTKDNIDYFSTIEQQLHHISVHDIDEIRDELAEQGFMKQRKNQTKKKKAQ	not soluble
MGSDKIHHHHHHSNINPSNGEGRDPLENFNRAMWKINYEVIDPHIFKPVAKGWRDYVPAPIKRSLVNIANNLDEPASFVNRLIEGDGQKAMRHFTRFWINSTFGLAGLIDWASQIKELKLENGNREFGDTLGHYGVPAGSYIMAPGYGPITPRQAVGKVVDSVYPMLSMLATPWMLTKFFVQSIDTRAQFINQEALLTNSADPYISFREAYFQNLRFKVKDGDVSDIQEQLSQEELDQID	not soluble
